Experimental data from the DeepSol protein solubility set.

Experiment: soluble on expression in E. coli; label from the status in PepcDB or PDB records

Sequence	soluble on expression in E. coli
MSYSPPQPPQRQYSSTLNVDCVDGVYRSQQQVSPLTKQVNHLAYEIPKNKYANNPWNYAPEFLKVFGDLRVHIGGKAVFDCVLLGSPRPRVCWLFNEDKLRFSDVIIEDTADVCRLTIPYVQMHHFGTFTVLCENEVGRATAQAELLPLYE	not soluble
MGSDKIHHHHHHATSKHVYGENENPYLKTNADAVVSTKAEFPISRLEAKTVKLTDYAEKFHTYLGMTVDETLAALSNGSVVFYPINISKNCWNRTAPTKGTNGWYYNTAGGVCDAASGIASIELDATKKELVLNVLETASVGTAISINVGFAINNGANFDDYVRFAFDVTVTDPGRIVVANTIPAGDYSAFSIEFADYQEVIESCLGLTLSEFITACKEPGGPIALYMVDSESGEWNTTSDYTAGGSGIGYWLTSNLKVTNWSDDGSTGSVLFVETQENGDMVNIGRNPASTSGSVFNVNFVYALKEDNSKFVEFIVKATLE	not soluble
MSSNQYIQSLELTNFTVLPNDTFEFSENLNVIVAENGCGKTHLLKILYSLLEVTSNTKNRLLKTELQKSFADKLLNVFRPDSLGRLSKRLQGRGRTEIVLKLQNGTTHSSLNFSSNSSSQVNVQSIGLKENEYTPTPIFLPSRELITLCPWFTSLYQNQSIPFEETWFDTCMQLNHPLAKGPRETKIRELLEPIENAMGGKVSEEQGRFYLSLTNTGGKIEAPLVAEGLRKFVMIARLIATGALLDKGYLFWDEPEANLNPKLIKVAARIIWSLSQQGIQVFIATHSLFLLRELELLKLENNTDLPVRFFSLIASDDGTKVEQGNSINDLNTLILLDENIMQADRYLNI	not soluble
MGSDKIHHHHHHMKEIVEQNIFNEDLSQLLYSFIDSKETFSFAESSILHYVVFGGENLDVATRLGAGIEILILSSDIMDDLEDEDNHHALWMKINRSESLNAALSLYTVGLTSIYSLNNNPLIFKYVLKYVNEAMQGQHDDITNKSKTEDESLEVIRLKCGSLIALANVAGVLLATGEYNETVERYSYYKGIIAQISGDYYVLLSGNRSDIEKNKHTLIYLYLKRLFNDASEDLLYLISHKDLYYKSLLDKEKFQEKLIKAGVTQYISVLLEIYKQKCISAIEQLNLDKEKKELIKECLLSYTKGDTRCKT	not soluble
KKTSGNQDEILVIRKGWLTINNIGIMKGGSKEYWFVLTAENLSWYKDDEEKEKKYMLSVDNLKLRDVEKGFMSSKHIFALFNTEQRNVYKDYRQLELACETQEEVDSWKASFLRAGVYPERV	soluble
MSSSNWEKLKKKLDSAKSGRVEKKHSNEKKYLKSVKGKNNENENSYIVDKKRMNELKKFAKENDIPESQVLDAYGVDASKLTRKTNLETLGKYIAMDCEMVGVADDMSVLARVSIVNYHGHVVYDTYVRPKEKVTDWRTWVSGVKSFHMRDAPSFEKVQAEVAKILDNRVLVGHAVHNDLKVLLLSHPRRMIRDTSRFSGYRKLAKGRTPGLKKLAEVILGRDIQSGQHSSVQDAQATMELYKKVKKEMDEVAFKGLSKS	soluble
MFELVDNIAQTAVIKVIGVGGGGGNAVNHMAKNNVEGVEFICANTDAQALKNIAARTVLQLGPGVTKGLGAGANPEVGRQAALEDRERISEVLEGADMVFITTGMGGGTGTGAAPIIAEVAKEMGILTVAVVTRPFPFEGRKRMQIADEGIRALAESVDSLITIPNEKLLTILGKDASLLAAFAKADDVLAGAVRGISDIIKRPGMINVDFADVKTVMSEMGMAMMGTGCASGPNRAREATEAAIRNPLLEDVNLQGARGILVNITAGPDLSLGEYSDVGNIIEQFASEHATVKVGTVIDADMRDELHVTVVATGLGARLEKPVKVVDNTVQGSAAQAAAPAQREQQSVNYRDLDRPTVMRNQSHGSAATAAKLNPQDDLDYLDIPAFLRRQAD	soluble
MDPSMYPGASATYLSYPQQNASQDYLGAYAAQTTTTTRNTANGSTSSDHLLGDPSSSCSPRETSPSTTSLVLTIRLLMQGKEVGSIIGKKGDQIKKIREESGAKINISDGSCPERIVTITGTLGVIGKAFNMVCNKFEEDMLLLPNSVPKPPITMRVIVPATQCGSLIGKGGSKIKDIREATGASIQVASEMLPHSTERAVTLSGTADAINLATSLKIPGSTKRLHNHIPPKTNVQPIGNRHVSGYNCRTTTTGTGSTATRRGSTYGWRTGTGVQVQQQLVTNALLQQHQFAAVQQELAARAALFNQQLMMPGQQQQASQAQEVYLGQHGLIYTANGVQLGGQDNSKAMEAGAAAAAAAQWQGYDMAAMQQQQQQQQQLLNQYALNQSMLIGAPFMKGGPTPPGTTSGKATSSGASAQGAATSSARFHPY	not soluble
MGSDKIHHHHHHMNWLLNISTHGSDLEIAGPEWSEAVSLLRRTGMDGFELYPAGAYDCTAIPKEIVGGVHLRFFVMLRQIWQNDREGLLRMFGSEQTVRHYYSGVNREAVISCYRSQLELAARFNVPYVVFHPVHYELEYVFNWQPPWGWRETVDLSTEIINEVVRDTPYDGWILFENLWWPGNFRLDSTDEIDRLLSKVRWPKCGIVLDTAHILNKNQELRTEEEAIAFLLRQVERLGDYRQLIKAVHLSKSLSGEAAKAGFANADPFCGAHDFWQRFSIALRHVRDLDRHEPFSHSMLGELFDLIEPDNVVFELAFSSLDEWIGKIEQQQRALQRFFPECRIKENLY	not soluble
MGSDKIHHHHHHMTALRQDIDPNGLLEYSVVYTDRALNHMSKAFQEVMNDLLSNLKTVYNAEAAVIIPGSGTYGMEAVARQLTIDEDCLIIRNGWFSYRWTQILEKGKFAKSSTVLTAERTEDTEAPKPFAPVDIETAVAKIKEDKSAIVYAPHVETSSGIILSEEYIKALSEAVHSVGGLLVIDCIASGCVWLDMKELGIDVLISAPQKGWSSTPCAGLVMLSAAAIKKVESTESNCFSLDLKQWLTIMRAYENGGHAYHATMPTDSLRQFRDAILEAKEIGFDILRDAQWELGNRVRKVLTDKGIESVAAEGFEAPGVVVSYTERDDMHKGSAFAEAGLQIAAGVPLKVGEPDNFKTFRLGLFGLDKLTDIDGTVERFEKALDEVLAK	not soluble
MFGRLKQKVKEKTGRAKATTLPAEVDDAMGYFKNLTPRVKDLHKSMTNLEDISKWQKKASFSGTLENYSRLGDKINVKPFMDAVDARMGAEADAVKGVLAICEKYKSFYQNEGKLHADSIANLNRTRLDMDSAADKYANNETEVNKTRLDNSTTEFEVACERMRELANGIKTIESNHSSWQDGLMKEIKVALRK	not soluble
MSMIDIDPPSFQSPRPIAGDDGNRRTVLYGDYTVFSVFQPVFSVSHRRAIGYHASLRAHDSQGNQVPSHDVFTQAARRGDLLELGRLAESLHLGNFHTFDSHDEWLFLSLHPAALMDTVYGDALLANLKALGLPPQRVVLEVPEQAGGETPRFAAIVDGLRKAGFLIALGGFGAKHSNIDRVWHLHPDIVTLDRGILAQASEHSHLERVLPGLVSLLHESGQLVLMGGITTEREALIALECDVDFVQGQYFAGP	not soluble
LMVGGLLLAAASNNVQAEALQPDPAWQQGKLDNGFSWQLLATPQRPSDRIELRLIVNTGSLSENTQEVGFAHLLPRLALMSSASFTPAQLQSLWQQGIDNERPLPPAITSYDFTLYSLSLPNNRPDLLKDALAWLSDTAGNLAVSEQTVNAALNTATDPIATFPQNIQEPWWRYRLKGSSLIGHDPGQPVTQPVDVEKLKQFYQQWYTPDAMTLYVVGNVDSRSIAAQISKAFSELKGKRTAPAAVATLAPLPPEPVSLMNEQAAQDTLSLMWDTPWHPIQDSMALSRYWRSDLAREALFWHIKQVLEKNNQKNLKLGFDCRVQYQRAQCAIHLNTPVENLTANMTFVARELAALRANGLSQAEFDALMTQKNDQLSKLFATYARTDTDILMSQRLRSQQSGVVDIAPEQYQKLRQAFLSGLTLAELNRELKQQLSQDTTLVLMQPKGEPEVNVKALQEIYNGIMAPQTVAEEEVAPAEAVETAPVMPTTAQ	soluble
MSLTDASFPALPPPLVSLGDLAWDVLAKPDTLLLPGGDTTGRLELSGGGSAANLAVWAARLGAPTTFVGKIGQDRFGELATAELRAEGVRAEVLASAAHPTGVILALIDRRGQRAMLTGQGADWELLPEELPRDVLSSAGHLHLTAWSLFRDPPRAAALEAARIAKAGGATLSLDPGSFQMIQQLGREAFLNIVDALPFDVMFPNDDEARAMSGERDNEAALTWLRARYPRALIALKMDEDGALIEGPQTARVQVPATRDPLVDATGAGDAFGGAFLSQWLRHHDAERAARVAVQVGGWVVSRFGARPPADPDLTRRLASVGADLLTPDPAAAPDPSQDSPEVNEGHHHHHH	soluble
DVQLQASGGGLVQPGGSLRVSCAASGFTFSSYHMAWVRQAPGKGLEWVSTINPGDGSTYYADSVKGRFTISRDNAKNTLYLQMNSLKSEDTAVYYCAKYSGGALDAWGQGTQVTVSSQSEQKLISEEDLNHHHHH	soluble
MGSSHHHHHHGKTIFVIVPTNEEQVAFLEALAKQDELNFDWQNPPTEPGQPVVILIPSDMVEWFLEMLKAKGIPFTVYVEEGGSENLYFQGGGGGGAHSLMRQMMLASVIRFTAVFLGIRRCRGAFVVAPLFVLQPLLQHLQQLITHPLTCLQGGIQWQLHALVEHLVHLQHLPSPRVQLSHVTKKRRAPVRKVVCGRIIHVHRTLLLLKQLRLLGVPGTQRAESSEHGGEPLTAVLVQLDKSIASRSGDNGDGGGRCR	not soluble
NAKKPTMQLSDSGVDILIGSASYEGGELVLPTSITNQSSQSVIQVEVEVQVFDMSGKQLAKEKVTVWQSIKRMADTYLRPQQAEQGKSIKLAVPQSQQYQFSAKVLEVKTR	not soluble
MSPRSPRHDKILQLVRENGFMPIEELARLLDVTPQTIRRDINQLCEANLLRRYHGGAALGNSVENEDYFARKGKFQSEKAHIADMIARSIPDHASLFMSIGTTIEAVAQALTATHKGLRVITNNIHVASIMSTNPDFTAMITSGTVRASDGGITGVATLDFINQFKVDYAIIGVSGIEPDGSLLDFDYREVRVAQAMMNNARHRYLAADHSKFGRNALVRMGHISEFHTVFTDAAPPEPVTKLLEEHNVRLVLSEALEHHHHHH	soluble
MYNISFTPDRPLTYHLEDDQSLARLSLVPGRGGLVTEWTVQGQPILYFDRERFQDPSLSVRGGIPILFPICGNLPQDQFNHAGKSYRLKQHGFARDLPWEVIGQQTQDNARLDLRLSHNDATLEAFPFAFELVFSYQLQGHSLRIEQRIANLGDQRMPFSLGFHPYFFCREKLGITLAIPANDYLDQKTGDCHGYDGQLNLTSPELDLAFTQISQPRAHFIDPDRNLKIEVSFSELYQTLVLWTVAGKDYLCLEPWSGPRNALNSGEQLAWVEPYSSRSAWVNFQVSTELEHHHHHH	soluble
GYIDTGLYQNKEDILNSPRRLGSTQTKLGDIGYTDVNGDGKIDGEDQVRIGKPTMPHFTYAFDFSLGYEGFTLSGLLYGTGERYMTFGNRYQSGEGKYLYYENQLNYWRPDNTGADFPRISISSGVNGNNNKAGSTFWMRNASYLRLKDLQLSYDFKYKYLKKCDWLQTCRVNLSGSNLFTISGVSKFFDPETSSTSGDGYPVQRVYSIGVTIGF	not soluble
MSLSHYDRMKRSSIAPYRRSNDSSNRIDKKTGKKGHGLMSKLKDLVSFGWAQEHHKDNDFSARDTGRERTNVSKGSYAAVPGGFFSSDQSSFILRERSRIMNESTMHSEADTSNAKLADFFAKKGNEPLSEIEMEGVLALMQKSRGVADESSFLGNSSRLLGDISNANASQVLRTGNISTSSALNVPNFKPSTDESRNINAKEVENSTIVSTPLKRKNFDYSSIRSPYRTVIYRFDDSNKKKISSVFDKPESSSQEVDETPKPSNSKPLSNTASALVSLLSDKDAAKESIKPMANPYTSHLTALRKSREDLPSINDKITVPKRRQRSETEDKEEAKITSSNGEAQEDTNIPEGIASRKNEEAQDSFTKYKPMRSSSLRDSVSLAHTESNNEKQMNSPKFVPAPLDKNETKETAKSDLTLTSSDKQSESKPSFSFPVNSTTKSTFMGTKKESTSPAVNSEGHHHHHH	soluble
